{
  "source": "patent US20070004636A1",
  "about": "“Method of degrading transcriptional factors of saccharometabolism-associated gene, method for inhibiting the degradation, and agent for inhibiting degradation and degradation inhibitor” (priority 2002, published 2007)",
  "molecules": {"B1": {"name": "human μ-calpain: μ-Calpain extracted from human erythrocytes (Calpain 1, human erythrocytes; Calbiochem, Inc.) (protein, UniProt P07384 2-714; P04632 1-268, looked up)", "Calpain-1 catalytic subunit": "SEEIITPVYCTGVSAQVQKQRARELGLGRHENAIKYLGQDYEQLRVRCLQSGTLFRDEAFPPVPQSLGYKDLGPNSSKTYGIKWKRPTELLSNPQFIVDGATRTDICQGALGDCWLLAAIASLTLNDTLLHRVVPHGQSFQNGYAGIFHFQLWQFGEWVDVVVDDLLPIKDGKLVFVHSAEGNEFWSALLEKAYAKVNGSYEALSGGSTSEGFEDFTGGVTEWYELRKAPSDLYQIILKALERGSLLGCSIDISSVLDMEAITFKKLVKGHAYSVTGAKQVNYRGQVVSLIRMRNPWGEVEWTGAWSDSSSEWNNVDPYERDQLRVKMEDGEFWMSFRDFMREFTRLEICNLTPDALKSRTIRKWNTTLYEGTWRRGSTAGGCRNYPATFWVNPQFKIRLDETDDPDDYGDRESGCSFVLALMQKHRRRERRFGRDMETIGFAVYEVPPELVGQPAVHLKRDFFLANASRARSEQFINLREVSTRFRLPPGEYVVVPSTFEPNKEGDFVLRFFSEKSAGTVELDDQIQANLPDEQVLSEEEIDENFKALFRQLAGEDMEISVKELRTILNRIISKHKDLRTKGFSLESCRSMVNLMDRDGNGKLGLVEFNILWNRIRNYLSIFRKFDLDKSGSMSAYEMRMAIESAGFKLNKKLYELIITRYSEPDLAVDFDNFVCCLVRLETMFRFFKTLDTDLDGVVTFDLFKWLQLTMFA", "Calpain small subunit 1": "MFLVNSFLKGGGGGGGGGGGLGGGLGNVLGGLISGAGGGGGGGGGGGGGGGGGGGGTAMRILGGVISAISEAAAQYNPEPPPPRTHYSNIEANESEEVRQFRRLFAQLAGDDMEVSATELMNILNKVVTRHPDLKTDGFGIDTCRSMVAVMDSDTTGKLGFEEFKYLWNNIKRWQAIYKQFDTDRSGTICSSELPGAFEAAGFHLNEHLYNMIIRRYSDESGNMDFDNFISCLVRLDAMFRAFKSLDKDGTGQIQVNIQEWLQLTMYS"}, "B2": {"name": "rat m-calpain: rat m-calpain (Calpain 2, rat recombinant, E. coli, Calbiochem, Inc.), positive control (protein)", "chain": "MAGIAMKLAKDREAAEGLGSHERAIKYLNQDYETLRNECLEAGALFQDPSFPALPSSLGFKELGPYSSKTRGIEWKRPTEICADPQFIIGGATRTDICQGALGDCWLLAAIASLTLNEEILARVVPLDQSFQENYAGIFHFQFWQYGEWVEVVVDDRLPTKDGELLFVHSAEGSEFWSALLEKAYAKINGCYEALSGGATTEGFEDFTGGIAEWYELRKPPPNLFKIIQKALEKGSLLGCSIDITSAADSEAVTYQKLVKGHAYSVTGAEEVESSGSLQKLIRIRNPWGQVEWTGKWNDNCPSWNTVDPEVRANLTERQEDGEFWMSFSDFLRHYSRLEICNLTPDTLTCDSYKKWKLTKMDGNWRRGSTAGGCRNYPNTFWMNPQYLIKLEEEDEDDEDGERGCTFLVGLIQKHRRRQRKMGEDMHTIGFGIYEVPEELTGQTNIHLSKNFFLTTRARERSDTFINLREVLNRFKLPPGEYVLVPSTFEPHKNGDFCIRVFSEKKADYQTVDDEIEANIEEIEANEEDIGDGFRRLFAQLAGEDAEISAFELQTILRRVLAKREDIKSDGFSIETCKIMVDMLDEDGSGKLGLKEFYILWTKIQKYQKIYREIDVDRSGTMNSYEMRKALEEAGFKLPCQLHQVIVARFADDELIIDFDNFVRCLVRLEILFKIFKQLDPENTGTIQLDLISWLSFSVL"}},
  "type_in_all_cases": "biochemical",
  "settings_in_all_cases": "1 hour at 37° C.",
  "key": {"human HNF-4α": {"test_system": "human HNF-4α", "assay": "in vitro protein degradation test of HNF-4α by calpain (Western blotting)", "protocol": "Using the HNF-4α expression plasmid, in vitro synthesis of HNF-4α protein was conducted using the TNT T7 Quick Coupled Transcription/Translation System (Promega, Inc.). That is, the HNF-4α expression plasmid was mixed with TNT T7 Quick Master Mix, and then incubated for 1.5 hours at 30° C. in the presence of methionine to synthesize HNF-4α.\nThe in vitro protein degradation test was carried out by adding m-calpain extracted from rabbit muscle (Protease, Calcium-Activated Neutral (calpain), Sigma Chemical Co.) at a final concentration of 50 μg/mL to the synthesized HNF-4α, and then incubating for 1 hour at 37° C. in the presence of 200 mM Tris-HCl (pH 7.8)/1 mM dithiothreitol (DTT)/6 mM CaCl2. To conduct a degradation test in the absence of calcium, a test sample was prepared by adding 10 mM ethylenediaminetetraacetic acid (EDTA) instead of 6 mM CaCl2, and the sample was then incubated in a similar manner. The samples after incubation were added to an equal volume of 2× sodium dodecyl sulfate (SDS) sample buffer (4% SDS/125 mM Tris-HCl, pH 6.8/20% glycerol/0.01% bromphenol blue (BPB)/10% β-mercaptoethanol), heated for 5 minutes, and subjected to 10% SDS-PAGE for separation. Thereafter, Western blotting was carried out to detect HNF-4α using anti-HNF-4α antibody/HNF-4α (C-19) antibody (Santa Cruz Biotechnology, Inc.) and anti-Xpress antibody (Invitrogen, Inc.). An ECL Western blotting detection kit (Amersham pharmacia biotech) was used for the detection.\nThe final concentration of human m-calpain in the reaction system was 2.33 mg/mL as the protein concentration of the lysate of sf-9 cells that expressed human m-calpain. The final concentration of rat m-calpain in the reaction system was 59 units/mL. A degradation test was also conducted in the same manner without addition of calpain. Further, to test for degradation in the absence of calcium, a sample was prepared by adding 10 mM of EDTA instead of 6 mM CaCl2, and a degradation test was conducted with the sample in a similar manner. The samples after incubation were added to an equal volume of 2×SDS sample buffer, heated for 5 minutes, and subjected to 5-20% SDS-PAGE for separation. Thereafter, Western blotting was carried out to detect HNF-4α using anti-HNF-4α antibody/HNF-4α (C-19) antibody. An ECL Western blotting detection kit was used for the detection.\nAn in vitro protein degradation test was carried out by adding μ-calpain to HNF-4α at a final concentration of 50 units/mL, and incubating for 1 hour at 37° C. in the presence of 200 mM Tris-HCl (pH 7.8)/1 mM DTT/6 mM CaCl2. […]"}, "human HNF-1α": {"test_system": "human HNF-1α", "assay": "in vitro protein degradation test of HNF-1α by calpain (Western blotting)", "protocol": "Using the HNF-1α expression plasmid, in vitro synthesis of HNF-1α protein was carried out using the TNT T7 Quick Coupled Transcription/Translation System. That is, the HNF-1α expression plasmid was mixed with TNT T7 Quick Master Mix, and then incubated for 1.5 hours at 30° C. in the presence of methionine to synthesize HNF-1α. Thereafter, immunoprecipitation was conducted by adding anti-Xpress antibody to the synthesized HNF-1α, mixing by inversion for 1 hour at 4° C., and then adding Protein G Sepharose 4 Fast Flow and mixing by inversion for an additional 1 hour at 4° C. Subsequently, Protein G Sepharose was collected by centrifugation and washed 3 times with washing buffer (50 mM Tris-HCl, pH 7.5/150 mM NaCl/0.2% Nonidet P-40), followed by rinsing with 200 mM Tris-HCl (pH 7.8) to obtain the HNF-1α sample as 20% slurry (hereunder, referred to as “HNF-1α slurry”).\nProtein degradation tests were carried out in vitro by adding μ-calpain or m-calpain to the HNF-1α slurry, and incubating for 1 hour at 37° C. in the presence of 200 mM Tris-HCl (pH 7.8)/1 mM DTT/6 mM CaCl2. The final concentrations of the respective calpain in the reaction system were as follows: 50 units/mL of human μ-calpain; 50 μg/mL of rabbit m-calpain as a protein concentration; and 59 units/mL of rat m-calpain. For a control experiment, an HNF-1α slurry was incubated without the addition of calpain in a similar manner in the presence of calcium. Further, to test for protein degradation in the absence of calcium, a sample was prepared by adding 10 mM of EDTA instead of 6 mM of CaCl2 and was incubated in the same manner. The samples after incubation were added to an equal volume of 2×SDS sample buffer, heated for 5 minutes, and then subjected to 5-20% SDS-PAGE for separation. Thereafter, Western blotting was carried out to detect HNF-1α using anti-Omni/M21 antibody (Santa Cruz Biotechnology, Inc.), which recognizes a His-Xpress region, and anti-HNF-1α antibody/HNF-1α (C-19) antibody (Santa Cruz Biotechnology, Inc.). An ECL Western blotting detection kit was used for conducting the detection.\nIn-vitro protein degradation tests were carried out in the same manner as in Example 7, but the lysate of sf-9 cells that coexpressed m-calpain with calpain small subunit 1 was used as m-calpain. The final concentration of the lysate of the sf-9 cells that expressed these proteins in the reaction system was 1.75 mg/mL as a protein concentration. The final concentration of rat m-calpain in the reaction system was 59 units/mL. Detection of HNF-1α was performed in the same manner as Example 7, but only anti-HNF-1α antibody/HNF-1α (C-19) antibody was used."}, "human IPF-1": {"test_system": "human IPF-1", "assay": "in vitro protein degradation test of IPF-1 by calpain (Western blotting)", "protocol": "Using the IPF-1 expression plasmid, synthesis of IPF-1 protein was carried out in vitro using the TNT T7 Quick Coupled Transcription/Translation System. That is, the IPF-1 expression plasmid was mixed with TNT T7 Quick Master Mix, and then incubated for 1.5 hours at 30° C. in the presence of methionine to synthesize IPF-1.\nProtein degradation tests were carried out in vitro by adding μ-calpain or m-calpain to IPF-1, and incubating for 1 hour at 37° C. in the presence of 200 mM Tris-HCl (pH 7.8)/1 mM DTT/6 mM CaCl2. The final concentrations of each calpain in the reaction systems were as follows: 50 units/mL of human μ-calpain; 50 μg/mL of rabbit m-calpain as a protein concentration, and 59 units/mL of rat m-calpain. For a control experiment, IPF-1 was incubated without addition of calpain in the same manner in the presence of calcium. Further, to test for protein degradation in the absence of calcium, a sample was prepared by adding 10 mM of EDTA instead of 6 mM of CaCl2, and incubated in the same manner. The samples after incubation were added to an equal volume of 2×SDS sample buffer, heated for 5 minutes, and subjected to 5-20% SDS-PAGE for separation. Thereafter, Western blotting was carried out to detect IPF-1 using anti-Xpress antibody and anti-IPF1 (PDX-1) antibody/N-18 (Santa Cruz Biotechnology, Inc.). The ECL Western blotting detection kit was used for conducting the detection.\nIn-vitro protein degradation tests were carried out in the same manner as Example 10, but the lysate of sf-9 cells that coexpressed m-calpain with calpain small subunit 1 was used as m-calpain. The final concentration of the lysate of sf-9 cells that expressed these proteins in the reaction system was 2.33 mg/mL as a protein concentration. The final concentration of rat m-calpain in the reaction system was 59 units/mL. Detection of IPF-1 was performed in the same manner as Example 10, but only anti-IPF-1 antibody/N-18 was used."}, "[1]": {"settings": "in the absence of calcium (10 mM EDTA instead of CaCl2)"}, "[2]": {"settings": "in the presence of calcium (6 mM CaCl2), Western blotting"}},
  "data": [
    {"molecule": "B1", "values": [
      {"measurement": "degradation of HNF-4α", "setting": "human HNF-4α; [1]", "value": "not observed"},
      {"measurement": "degradation of HNF-4α", "setting": "human HNF-4α; [2]", "value": "observed"},
      {"measurement": "degradation of HNF-1α", "setting": "human HNF-1α; [1]", "value": "not degraded"},
      {"measurement": "degradation of HNF-1α", "setting": "human HNF-1α; [2]", "value": "observed"},
      {"measurement": "degradation of IPF-1", "setting": "human IPF-1; [1]", "value": "not degraded"},
      {"measurement": "degradation of IPF-1", "setting": "human IPF-1; [2]", "value": "observed"}
    ]},
    {"molecule": "B2", "values": [
      {"measurement": "degradation of HNF-1α", "setting": "human HNF-1α; [1]", "value": "not degraded"},
      {"measurement": "degradation of HNF-1α", "setting": "human HNF-1α; [2]", "value": "observed"},
      {"measurement": "degradation of IPF-1", "setting": "human IPF-1; [1]", "value": "not degraded"},
      {"measurement": "degradation of IPF-1", "setting": "human IPF-1; [2]", "value": "observed"}
    ]}
  ]
}
